This note sets out measurements from patent US20250059258A1.

A value given as a limit tells only on which side of the number the result lay.

For assay [1], the target named is Dupixent (IgG4 monoclonal antibody). The assay is described as follows: BLI, biotinylated ligand on sensor; 'Binding affinity (nM)'. In general terms: In BLI a coated tip is dipped into the sample, and binding shifts an interference pattern.
In assay [2] the target is Praluent (IgG1 monoclonal antibody). Described as above.
The target in assay [3] is Herceptin Fab with a kappa light chain and binding specificity for Her2/neu (from the monoclonal antibody trastuzumab). The assay is described as follows: BLI (ForteBio), biotinylated ligand on sensor, 1:1 fit.
For assay [4], the target named is Tremfya Fab with a lambda light chain and binding specificity for IL23 (from the monoclonal antibody guselkumab). The assay is described as above.
The target in assay [5] is dimeric human IgG-lambda (Southern Biotech, Birmingham AL). The description is as above.

B1: affinity ligand SEQ ID NO: 165 (designed binder)
chain: MDEAAHWEVQGAAYAARGDYDRAIEYYERALELDPNNAWAWEHLGWAYAARGDFDRAIEYYERALELDPDDAHAWFRLGFAYAARGDYDRAIEYYERALELDPEDELARAELESARRARQGQAGQGWAEFRQRLAAIRTRLEALGGSEAELAAFEREIAAFESELQAYAGAGNPEVEALRREAAAIRDELQAYRHNHHHHHHC
modifications: biotinylated (AviTag system)
As for B1, the Kd (usually the equilibrium constant for the complex coming apart) in assay [1] is 31 nM; in assay [2], under 1 nM.

B2: affinity ligand SEQ ID NO: 167 (designed binder)
chain: MDEAARWEVQGAAYAARGDYDRAIEYYERALELDPNNAWAWEHLGWAYAARGDYDRAIEYYERALELDPDDAHSWFRLGFAYAVRGDYDRAIEYYERALELDPEDELARAELESARRARQGQAGQGWAEFRQRLAAIRTRLEALGGSEAELAAFEREIAAFESELQAYAGAGNPEVEALRREAAAIRDELQAYRHNHHHHHHC
modifications: biotinylated (AviTag system)
Turning to B2, the Kd in assay [1] was 31 nM; in assay [2], under 1 nM.

B3: affinity ligand SEQ ID NO: 166 (designed binder)
chain: MDEAARWEVQGAAYAARGDYDRAIEYYERVLELDPNDAWAWEHLGWAYAARGDYDRAIEYYERALEVDPDDAHAWFRLGFAYAARGDYDRAMEYYERALELDPEDELARAELESARRARQGQAGQGWAEFRQRLAAIRTRLEALGGSEAELAAFEREIAAFESELQAYAGAGNPEVEALRREAAAIRDELQAYRHNHHHHHHC
modifications: biotinylated (AviTag system)
Consider B3, for which the Kd is 120 nM in assay [1] and under 1 nM in assay [2].

B4: affinity ligand SEQ ID NO: 168 (designed binder)
chain: MDEVARWEVQGAAYAARGGYDRAIEYYERALELDPNNAWAWEHLGWAYAARGDYDRAIEYYERALELDPDDAHEWFRLGFAYAARGDYDRAIEYYERALELDPEDELARAELESARRARQGQAGQGWAEFRQRLAAIRTRLEALGGSEAELAAFEREIAAFESELQAYAGAGNPEVEALRREAAAIRDELQAYRHNHHHHHHC
modifications: biotinylated (AviTag system)
Consider B4, for which the figures for the Kd in assay [1] and in assay [2] were 232 nM and under 1 nM, respectively.

B5: affinity ligand SEQ ID NO: 164 (designed binder)
chain: MGDEAERWYDLGAAYAARGDYDRAIEYYQRALELDPNDAWAWWELGVAYAARGDYDRAIEYYQRALELDLNNAVAWARLGIAYAARGDYDRAIEYYQRALELDPNNEVARDALEYARRARRC
modifications: biotinylated (AviTag system)
As to B5, the Kd is 82 nM in assay [1] and under 1 nM in assay [2].

B6: affinity ligand SEQ ID NO: 170 (designed binder)
chain: MGDEADRWYDQGAAYAARGDYDRAIEYYERALELDPNDAWAWWELGVAYAARGDYDRAIEYYQRALELDPNDAVAWARLGHAYAARGDYDRAIEYYQRALELDPNNEAARSNLEYARRAAACGLNDIFEAQKIEWHEHHHHHH
modifications: biotinylated (AviTag system)
Take B6: the Kd in assay [1] is 28 nM; in assay [2], under 1 nM.

B7: affinity ligand SEQ ID NO: 173 (designed binder)
chain: MGDEADRWYDQGAAYAARGDYDRAIEYYQRALELDPNNAWAWWELGVAYAARGDYDRAIEYYQRALELDPNDAVAWSRLGHAYAARGDYDRAIEYYQRALELDPNNEVARHLLEVARRAAACGLNDIFEAQKIEWHEHHHHHH
modifications: biotinylated (AviTag system)
For B7, the results for the equilibrium dissociation constant (Kd) in assay [1] and in assay [2] were 95 nM and under 1 nM, respectively.

B8: affinity ligand SEQ ID NO: 171 (designed binder)
chain: MGDEADRWYYQGAAYAARGDYDRAIEYYERALELDPNNAWAWWELGVAYAARGDYDRAIEYYQRALELDPNDAVAWARLGHAYAARGDYDRAIEYYQRALELDPNNEAARSNLEYARRAAACGLNDIFEAQKIEWHEHHHHHH
modifications: biotinylated (AviTag system)
Take B8: the Kd in assay [1] is 242 nM; in assay [2], under 1 nM.

B9: affinity ligand SEQ ID NO: 174 (designed binder)
chain: MGDEADRWYDQGAAYAARGDYDRAIEYYERALELDPNNAWAWWELGVAYAARGDYDRAIEYYQRALELDPNDAVAWARLGHAYAARGDYDRAIEYYQRALELDPNNEAARSNLEYARRAAACGLNDIFEAQKIEWHEHHHHHH
modifications: biotinylated (AviTag system)
Consider B9, for which the Kd is 221 nM in assay [1] and under 1 nM in assay [2].

B10: affinity ligand SEQ ID NO: 172 (designed binder)
chain: MGDEADRWYDQGAAYAARGDYDRAIEYYQRALELDPNNAWAWWELGVAYAARGDYDRAIEYYQRALELDPNDAVAWSRLGHAYAARGDYDRAIEHYQRALELDPNNEVARHLLEVARRAAACGLNDIFEAQKIEWHEHHHHHH
modifications: biotinylated (AviTag system)
For the molecule B10, the figures for the Kd in assay [1] and in assay [2] were 215 nM and under 1 nM, respectively.

B11: affinity ligand SEQ ID NO: 163 (designed binder)
chain: MGHHHHHHDEAERWYDLGAAYAARGDYDRAIEYYQRALELDPNDAWAWWELGVAYAARGDYDRAIEYYQRALELDLNNAVAWARLGIAYAARGDYDRAIEYYQRALELDPNNEVARDALEYARRARRAPKC
modifications: biotinylated (AviTag system)
As for B11, the figures for the Kd in assay [1] and in assay [2] were 13 nM and under 1 nM, respectively.

B12: affinity ligand SEQ ID NO: 80 (designed binder)
chain: MGGGGSAAAGDEADRWAALGAAYAARGDYDRAIEYYQRALELDPNNAWAWWDLGVAYAARGDYDRAIEYYERALELDPDDAHAWFRLGWAYAARGDYDRAIEYYERALELDPEDETARDVLEGARRARQGQAGQGGGSGLNDIFEAQKIEWHECHHHHHH
modifications: biotinylated (AviTag system)
For the molecule B12, the Kd in assay [3] was 7 nM; in assay [4], 4 nM; in assay [5] it was under 1 nM.

B13: affinity ligand SEQ ID NO: 79 (designed binder)
chain: MGGGGSAAAGDEADRWADLGAAYAARGDYDRAIEYYQRALELDPNNAWAWWDLGVAYAARGDYDRAIEYYQRALELDPNNAVAWRRLGHAYAARGDYDRAIEYYQRALELDPNNELAREQLERARRARHGQAGQGGGSGLNDIFEAQKIEWHECHHHHHH
modifications: biotinylated (AviTag system)
Turning to B13, the Kd in assay [3] is 67 nM; in assay [4], 28 nM; in assay [5] it was under 1 nM.

B14: affinity ligand SEQ ID NO: 85 (designed binder)
chain: MGGGGSAAAGDEAERWDYLGAAYAARGDYDRAIEYYQRALELDPNNAWAWWDLGLAYAARGDYDRAIEYYQRALELDPNNAVAWFRLGWAYAARGDYDRAIEYYQRALELDPNNELARSELENARRARRGQAGQGGGSGLNDIFEAQKIEWHECHHHHHH
modifications: biotinylated (AviTag system)
Regarding B14, the Kd was 53 nM in assay [3], 26 nM in assay [4] and under 1 nM in assay [5].

B15: affinity ligand SEQ ID NO: 83 (designed binder)
chain: MGGGGSAAAGDEADRWADLGAAYAARGDYDRAIEYYQRALELDPNNAWAWWDLGVAYAARGDYDRAIEYYQRALELDPNNAVAWRRLGHAYAARGDYDRAIEYYQRALELDPNNELAREQLGRARRARRGQAGQGGGSGLNDIFEAQKIEWHECHHHHHH
modifications: biotinylated (AviTag system)
As to B15, the results for the Kd in assay [3], in assay [4] and in assay [5] were 22 nM, 8 nM and under 1 nM, respectively.

B16: affinity ligand SEQ ID NO: 82 (designed binder)
chain: MGGGGSAAAGDEAGRWYDLGAAYAARGDYDRAIEYYQRALELDPNNAWAWWELGVAYAARGDYDRAIEYYQRALELDPNNAVAWARLGIAYAARGDYDRAIEYYQRALELDPNNEVARDALEYARRARRGQAGQGGGSGLNDIFEAQKIEWHECHHHHHH
modifications: biotinylated (AviTag system)
As for B16, the results for the dissociation constant Kd in assay [3], in assay [4] and in assay [5] were 23 nM, 6 nM and under 1 nM, respectively.

B17: affinity ligand SEQ ID NO: 94 (designed binder)
chain: MGGGGSAAAGDEAVRWEIQGAAYAARGDYDRAIEYYERALELDPNNAWAWWELGVAYAARGDYDRAIEYYERALELDPDDAHVWFRLGWAYAVRGDYDRAIEYYERALELDPEDELARRILEDARRARQGQAGQGGGSGLNDIFEAQKIEWHECHHHHHH
modifications: biotinylated (AviTag system)
For B17, the figures for the Kd in assay [3], in assay [4] and in assay [5] were 14 nM, 3 nM and under 1 nM, respectively.

B18: affinity ligand SEQ ID NO: 84 (designed binder)
chain: MGGGGSAAAGDEGGRWEGQGAAYAARGDYDRAIEYYERALELDPNNAWAWWDLGVAYAARGDYDRAIEYYERALELDPDDATAWSRLGHAYAARGDYDRAIEYYERALELDPEDETARYLLEHARRARQGQAGQGGGSGLNDIFEAQKIEWHECHHHHHH
modifications: biotinylated (AviTag system)
B18: the Kd in assay [3] is 32 nM; in assay [4], 18 nM; in assay [5], under 1 nM.

B19: affinity ligand SEQ ID NO: 93 (designed binder)
chain: MGGGGSAAAGDEAQRWENQGAAYAARGDYDRAIEYYERALELDPNNAWAWWELGVAYAARGDFDRAIEYYERALELDPDDATVWSRLGHAYAARGDYDRAIEYYERALELDPVDETARYLLEHARRARQGQAGQGGGSGLNDIFEAQKIEWHECHHHHHH
modifications: biotinylated (AviTag system)
As for B19, the Kd in assay [3] is 15 nM; in assay [4], 4 nM; in assay [5] it was under 1 nM.

B20: affinity ligand SEQ ID NO: 88 (designed binder)
chain: MGGGGSAAAGDEAQCWENQGAAYAARGDYDRAIEYYERALELDPNNAWAWWELGVAYAARGDYDRAIEYYERALELDPDDATAWSRLGHAYAARGDYDRAIEYYERALELDPEDETARYLLEHARRARQGQAGQGGGSGLNDIFEAQKIEWHECHHHHHH
modifications: biotinylated (AviTag system)
Consider B20, for which the Kd in assay [3] is 32 nM; in assay [4], 10 nM; in assay [5], under 1 nM.

B21: affinity ligand SEQ ID NO: 86 (designed binder)
chain: MGGGGSAAAGDEAQRWENQGAAYAARGDYDRAIECYESALELDPNNAWAWWELGVAYAARGDYDRAIEYYERALELDPDDAIAWSRLGHAYAARGDYDRAIEYYERALELDPEDETARYLLEHARRARQGQAGQGGGSGLNDIFEAQKIEWHECHHHHHH
modifications: biotinylated (AviTag system)
B21: the Kd in assay [3] was 28 nM; in assay [4] it was 8 nM; in assay [5] it was under 1 nM.

B22: affinity ligand SEQ ID NO: 91 (designed binder)
chain: MGGGGSAAAGDEAQRWENQGAAYAARGDYDRAIEYYGRALELDPNNAWAWWELGVAYAARGDYDRAIEYYERALELDPDDATAWSRLGHAYAARGDYDRAIEYYERALELDPENETARYLLEHARRARQGQAGQGGGSGLNDIFEAQKIEWHECHHHHHH
modifications: biotinylated (AviTag system)
With B22, the Kd in assay [3] is 46 nM; in assay [4], 11 nM; in assay [5], under 1 nM.

B23: affinity ligand SEQ ID NO: 87 (designed binder)
chain: MGGGGSAAAGDEAQHWENQGAAYAARGDYDRAIEYYERALELDPNNAWAWWELGVAYAARGDYDRAIEYYERALELDPDDATVWSRLGHAYAARGDYDRAIEYYERALELDPEDETARYLLEHARRARQGQAGQGGGSGLNDIFEAQKIEWHECHHHHHH
modifications: biotinylated (AviTag system)
In the case of B23, the Kd was 84 nM in assay [3], 10 nM in assay [4] and under 1 nM in assay [5].
